Experimental findings from article PMC9482650 (Nature Communications, 2022) are described below.

Assay [1] concerns the target T1, p-3 phosphorylated RPS6KA1 PBM (human, not fully specified (N-terminus); also: N-terminal linker between biotin and peptide, type not given here).
T1 chain: RVRKLP[pS]TTL-OH
In words: holdup assay; biotinylated PBM peptide saturating streptavidin resin, His6-MBP-PDZ (4 µM) in solution, 15 min at room temperature, no washing, filtration; 50 mM TRIS pH 7.5, 300 mM NaCl, 1 mM TCEP; binding intensity converted to a steady-state Kd given as pKd; PDZ in bacterial lysate (LYSC), single (SAPF) or double (DAPF) affinity purified, which one for a given pair is not given.

Assay [2] concerns the target T2, RPS6KA1 PBM (human, also: biotin via linker: TTDS, Ahx or Ado-Ado).
T2 chain: Biotin-RVRKLPSTTL-OH
The assay is described as above.

Assay [3] concerns the target T3, HTLV1 Tax1 PBM (HTLV1, also: biotin attached via linker (not given here)).
T3 chain: Biotin-SEKHFRETEV-OH
In words: holdup assay.

Square brackets hold non-standard residues; d marks the D form. Ends that are not written are not given here. * marks the point of attachment. Biotin = O=C1N[C@H]2[C@H](CS[C@H]2CCCCC(=O)*)N1; pS = N[C@@H](COP(=O)(O)O)C(=O)O

B1: His6-MBP-SYNJ2BP PDZ (domain or fragment, human, UniProt P57105 13-100, looked up)
chain: EINLTRGPSGLGFNIVGGTDQQYVSNDSGIYVSRIKENGAAALDGRLQEGDKILSVNGQDLKNLLHQDAVDLFRNAGYAVSLRVQHRL
For the molecule B1, the pKd in assay [1] is 4.48 pKd (-log10 of Kd in M); in assay [2], 3.82 pKd (-log10 of Kd in M); in assay [3], 6.04 pKd (-log10 of Kd in M).
